Key:
[1] = target: His-tagged α subunit of acetyl-CoA carboxylase (AccA), biotinylated (Streptomyces hygroscopicus var. ascomyceticus FS35)
[2] = target: His-tagged α subunit of acetyl-CoA carboxylase (AccA), biotinylated (Streptomyces hygroscopicus var. ascomyceticus FS35); remark: listed apart in the source

B1: GlnB protein (PII signal transduction protein encoded by gene 1_2537), native (untagged) (natural protein)
chain: MSIKAEYIWIDGTQPTAKLRSKTKILSDGSRLPRWGFDGSSTNQAEGHASDLVLEPVFSCPDPIRGGDHLLVLCEVLHTDLTPHPSNTRALLRPVAERFAGQEPIFGIEQEYTFLKGDRPLGFPEGGGYPAPQADYYCGVGADAIFGREIVEKHLDLCLAAGLGLSGINAEVMPGQWEFQVGALPPLEVSDHMWVARWLLHRVAEEFGVTASLDAKPAKGDWNGAGAHTNFSTRAMREGYDPIITACEALGQDDKPLEHVRQYGTGIEDRLTGAHETAPWDAYSYGASDRGASVRIPWQVEVEKKGYIEDRRPNANVDPYVVTRLMVDTCCTELARREQI
maximal calculated inhibition of ACC by GlnB at rising concentrations (from 0 μM, stable above 1.5 μM), without 2-OG [1]: 50%
maximal calculated inhibition of PCC by GlnB at rising concentrations (from 0 μM, stable above 1.5 μM), without 2-OG [1]: 24.7%
in vitro activity of ACC in the coupled enzyme assay with 5 μM GlnB, against 100% without GlnB [2]: 54.2%
in vitro activity of PCC in the coupled enzyme assay with 5 μM GlnB, against 100% without GlnB [2]: 76.5%

From article PMC8187598
